From US10967064B2, “Preparation method for a DNA origami based carrier system” (YEDITEPE UNIVERSITESI, priority 2016, dated 2021)

Columns and labels:
[1] = Dynamic light scattering analysis of hydrodynamic size; assay type: physicochemical; conditions: DLS, dispersed in water
Experimental: In step 1), 2 μL of each complementary oligonucleotide from a 100 μM stock is added into the hybridization buffer TAE/Mg^2+ to have a final volume of 200 μL. The newly prepared DNA origami carrier is characterized using AFM, agarose gel electrophoresis and dynamic light scattering analysis.
For DLS measurements, DNA tiles are dispersed in water. In water, DNA tiles are solvated by water molecules. This hydration layer causes grater diameter than theoretical size of the structure. Hydrodynamic size of DNA tiles was determined as approximately 50 nm, which is in good agreement with AFM results.

[2] = Atomic force microscopy (AFM) size of DNA tile on mica; assay type: physicochemical; conditions: dried on mica, non-contact mode; theoretical value 40 nm
From the text: The DNA tile samples taken from the hybridization media were dropped on mica surface for deposition and subsequently washed with deionized water. When the dropped DNA samples on mica were dried, images acquired at non-contact mode. Considering the distance between the base pairs in the DNA as 0.34 nm and the number of the base pairs in the DNA tile structure from one end to another, […], the theoretical length of an assembled DNA tile can be estimated as 40 nm. A representative AFM image obtained from the DNA tile containing dried droplet area is shown on FIG. 2. […] The marked structure is measured as 64 nm, which is larger than the theoretical value of 40 nm. […] Considering the fact that the formation of DNA based structures is not always 100 percent efficient, this deviation can be acceptable.

MDA-MB-231 cell line = test: Cytotoxicity of the DNA origami carrier (cell viability); assay type: cell-based; conditions: MDA-MB-231, concentration range 50-400 nM
Experimental: The cytotoxicity assessments of the DNA origami structure were carried out on MDA-MB-231 cell line at a concentration range of 50-400 nM. According to the cell viability results of the experiment, the DNA-tiles are non-toxic to the cells.

B1: DNA tiles: tile shaped DNA origami structure prepared by hybridizing nine complementary oligonucleotides (SEQ ID NOS: 1-9) (nucleic acid)
DNA 1: AGGCACCATCGTAGGAAAATCTGCGTCAGCTCTCCGTACACCAGTGCTTCCATGCGAAGTAAAACGTTCCGATCACCAACGGAGTAAAACGATCTAACTGATAACTAGCACCTCTGCTCACGTGAGGAGTAAAACTTGCC
DNA 2: ATACCGGAGGCTTCCTGTACGGAGAGCTGACGCAGACCTACGATGGACACGCCG
DNA 3: ATGCAACCTGCCTGGCAAGACTCCTCACGTGAGCAGAGGACTACTCATCCGTTA
DNA 4: TTTCCGACTGAGCCCTGCTAGTTATCAGTTAGATCGACTCCGTTGGACGAACAG
DNA 5: ATAGCGCCTGATCGGAACGACTTCGCATGGAAGCACTGGACCGTTCTACCGATT
DNA 6: CTCGCAATCGGTAGAACGGTGGAAGCCTCCGGTATGCATG
DNA 7: AAAAAAAAAACGGCGTGTGGTTGCATAAAAAAAAAA
DNA 8: CGCTATAACGGATGAGTAGTGGGCTCAGTCGGAAAGAGCA
DNA 9: AAAAAAAAAACTGTTCGTGGCGCTATAAAAAAAAAA
modifications: Oligonucleotide 1; Oligonucleotide 2; Oligonucleotide 3; Oligonucleotide 4; Oligonucleotide 5; Oligonucleotide 6; Oligonucleotide 7; Oligonucleotide 8; Oligonucleotide 9
Hydrodynamic size [1]: approximately 50 nm
Size of marked structure in AFM image [2]: 64 nm
Cytotoxicity (cell viability) (MDA-MB-231 cell line): non-toxic
